Source: publication PMC13195613 (Blood Advances, 2026)

Molecular target: T1, recombinant activated factor VII (UniProt P08709 61-212; P08709 213-466)
T1 sequence (looked up) 1: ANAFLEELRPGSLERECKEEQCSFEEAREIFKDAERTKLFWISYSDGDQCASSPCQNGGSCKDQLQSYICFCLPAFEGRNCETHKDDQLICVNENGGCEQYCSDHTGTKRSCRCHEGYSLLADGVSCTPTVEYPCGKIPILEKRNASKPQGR
T1 sequence (looked up) 2: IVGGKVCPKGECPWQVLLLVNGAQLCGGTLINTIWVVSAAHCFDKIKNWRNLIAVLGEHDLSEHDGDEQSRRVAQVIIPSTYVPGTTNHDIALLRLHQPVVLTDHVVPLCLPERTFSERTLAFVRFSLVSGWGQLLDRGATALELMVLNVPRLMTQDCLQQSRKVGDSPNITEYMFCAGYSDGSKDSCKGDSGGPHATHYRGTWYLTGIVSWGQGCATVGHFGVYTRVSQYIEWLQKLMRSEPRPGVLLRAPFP
Assay: BLI

B1: endothelial cell protein C receptor (receptor)
chain: SQDASDGLQRLHMLQISYFRDPYHVWYQGNASLGGHLTHVLEGPDTNTTIIQLQPLQEPESWARTQSGLQSYLLQFHGLVRLVHQERTLAFPLTIRCFLGCELPPEGSRAHVFFEVAVNGSSFVSFRPERALWQADTQVTSGVVTFTLQQLNAYNRTRYELREFLEDTCVQYVQKHISAENTKGSQTSRSYTS
B1: binds.
